Test results: paper PMC2711183 (The EMBO journal, 2009)
Positions count from the first letter of the chain named. Read-outs that look alike come from different tables or passages of the source.

T1: MccB K10A (E. coli) (UniProt Q47506)
T1 sequence: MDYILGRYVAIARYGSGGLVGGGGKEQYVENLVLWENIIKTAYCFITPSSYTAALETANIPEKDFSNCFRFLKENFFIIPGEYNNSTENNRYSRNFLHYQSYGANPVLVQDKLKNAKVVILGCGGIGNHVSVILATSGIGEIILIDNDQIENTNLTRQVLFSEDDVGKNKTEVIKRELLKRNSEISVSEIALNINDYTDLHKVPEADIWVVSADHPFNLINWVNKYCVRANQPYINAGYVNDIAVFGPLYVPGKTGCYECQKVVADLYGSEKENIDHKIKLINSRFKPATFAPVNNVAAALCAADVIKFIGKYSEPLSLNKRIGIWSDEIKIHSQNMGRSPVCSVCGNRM

B1: MccB-His6 (enzyme, E. coli, UniProt Q47506 1-350, looked up)
chain: T1 sequence with A10K
B2: MccB (N-terminal His6-tag removed) (enzyme, E. coli, UniProt Q47506 1-350, looked up)
chain: T1 sequence with A10K

Key:
[1] = tested on: Nc1ncnc2c1ncn2[C@@H]1O[C@H](COP(=O)(O)OP(=O)(O)OP(=O)(O)O)[C@@H](O)[C@H]1O; assay: purified protein; assay type: biochemical, Escherichia coli; conditions: 75 mM Tris-HCl pH 8.0, 5 mM MgCl2, 2.5 mM TCEP, co-substrate MccA
[2] = biological target: MccB ΔNTE (E. coli); assay: AUC
[3] = biological target: the molecule itself; assay: crystal structure
[4] = biological target: the molecule itself; assay: crystal structure; remark: listed apart in the source
[5] = biological target: T1, MccB K10A (E. coli)
[6] = biological target: B2; assay: crystal structure

Row | Molecule | Km [1] [µM] | kcat [1] [s⁻¹] | kcat/Km [1] [M⁻¹ s⁻¹] | further results
1 | MccB (Escherichia coli; C123L) | 220 ± 80 | 0.000306 ± 8.33e-05 | 2.22 | 
2 | MccB (Escherichia coli; K10A) | 120 ± 20 | 0.00103 ± 0.000139 | 8.33 | 
3 | MccB (Escherichia coli; N241A) | 400 ± 120 | 0.000472 ± 0.000139 | 1.11 | 
4 | MccB (Escherichia coli; R94A) | 380 ± 130 | 0.00125 ± 0.000917 | 2.22 | 
5 | MccB (Escherichia coli; Y239A) | 380 ± 190 | 5.56e-06 ± 2.22e-06 | 0.0139 | 
6 | MccB ΔNTE (domain or fragment) |  |  |  | stoichiometry N [2]: 2
7 | B1 |  |  |  | binding result [3]: binds
8 | B2 |  |  |  | binding result [4]: binds
9 | MRTGNAN [SeMet-MccA] |  |  |  | Km for MccA in the MccB-catalysed reaction (HPLC of product formation) [5]: 370 µM; binding result [6]: binds
